T1: Boi1 SH3 (BOI1_YEAST), P38041
T1 chain: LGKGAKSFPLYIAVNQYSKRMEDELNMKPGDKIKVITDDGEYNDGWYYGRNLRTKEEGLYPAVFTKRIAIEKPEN

T2: Yhr016c SH3 (YSC84_YEAST), P32793
T2 chain: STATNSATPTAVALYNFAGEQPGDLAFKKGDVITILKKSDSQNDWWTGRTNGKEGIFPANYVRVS

T3: Yfr024 SH3 (LSB3_YEAST), P43603
T3 chain: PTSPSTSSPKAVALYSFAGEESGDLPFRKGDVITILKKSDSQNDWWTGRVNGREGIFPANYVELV

T4: Rvs167 SH3 (RV167_YEAST), P39743
T4 chain: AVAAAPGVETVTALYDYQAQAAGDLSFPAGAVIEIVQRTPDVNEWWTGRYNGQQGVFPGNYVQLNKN

T5: Boi2 SH3 (BOI2_YEAST), P39969
T5 chain: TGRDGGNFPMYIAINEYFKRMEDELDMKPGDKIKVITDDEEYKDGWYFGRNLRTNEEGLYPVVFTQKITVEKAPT

T6: Myo5 SH3 (MYO5_YEAST), Q04439
T6 chain: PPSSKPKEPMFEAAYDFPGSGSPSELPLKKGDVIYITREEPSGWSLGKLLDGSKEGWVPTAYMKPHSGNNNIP


Key:
Assay in all cases: SPOT array
[1] = target: T1, Boi1 SH3 (BOI1_YEAST), P38041
[2] = target: Sho1 SH3 (SHO1_YEAST), P40073
Sho1 SH3 (SHO1_YEAST), P40073, sequence (P40073 295-366): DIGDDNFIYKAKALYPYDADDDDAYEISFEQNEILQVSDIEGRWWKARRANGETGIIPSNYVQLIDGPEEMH

[3] = target: T2, Yhr016c SH3 (YSC84_YEAST), P32793
[4] = target: T3, Yfr024 SH3 (LSB3_YEAST), P43603
[5] = target: T4, Rvs167 SH3 (RV167_YEAST), P39743
[6] = target: T5, Boi2 SH3 (BOI2_YEAST), P39969
[7] = target: T6, Myo5 SH3 (MYO5_YEAST), Q04439

Row | Binder | normalised SPOT signal, Boehringer light units (BLU); mean over the file's lines of this peptide [1] | normalised SPOT signal, Boehringer light units (BLU); mean over the file's lines of this peptide [2] | normalised SPOT signal, Boehringer light units (BLU); mean over the file's lines of this peptide [3] | normalised SPOT signal, Boehringer light units (BLU); mean over the file's lines of this peptide [4] | normalised SPOT signal, Boehringer light units (BLU); mean over the file's lines of this peptide [5] | normalised SPOT signal, Boehringer light units (BLU); mean over the file's lines of this peptide [6] | normalised SPOT signal, Boehringer light units (BLU); mean over the file's lines of this peptide [7]
1 | LPEPRFYPLSPKNN [YCL051W 94-107] | 95.3 | 33 | 30.9 | 202 | 49.4 | 47 | 289
2 | LPLPKLRPPRPTFA [YKL097C 62-75] | 3930 | 76.3 | 4270 | 16600 | 87.3 | 3.7 | 77900
3 | LSFDRPPPLTPEKN [YER032W 254-267] | 92.6 | 48.1 | 7.4 | 124 | 91.3 | 0 | 174
4 | LQQRRYYPIFPGSI [YBL035C 565-578] | 6230 | 38.8 | 44.5 | 474 | 91 | 472 | 279
5 | LQNAKNDPLPPVIE [YDL077C 56-69] | 120 | 0.2 | 37.2 | 10.7 | 47 | 21.8 | 58.8
6 | LPKLKSNPSVPHLH [YBR218C 505-518] | 843 | 114 | 5.2 | 71.1 | 52.3 | 20.5 | 193
7 | LNRKKVTPQLPKVT [YFL013C 529-542] | 384 | 263 | 22.7 | 142 | 75.9 | 27.9 | 500
8 | LPFPRKNPKLPENT [YHR099W 3263-3276] | 289 | 149 | 44.2 | 322 | 40.2 | 38.3 | 147
9 | LSGTRLVPNSPLLW [YBR055C 692-705] | 73.7 | 94 | 80.1 | 1410 | 1460 | 29.6 | 432
10 | LRISKPDPESPSKL [YBL101C 847-860] | 242 | 22.3 | 74.5 | 205 | 109 | 0.6 | 246

Now from value to binder:

Row | normalised SPOT signal, Boehringer light units (BLU); mean over the file's lines of this peptide [1] | normalised SPOT signal, Boehringer light units (BLU); mean over the file's lines of this peptide [2] | normalised SPOT signal, Boehringer light units (BLU); mean over the file's lines of this peptide [3] | normalised SPOT signal, Boehringer light units (BLU); mean over the file's lines of this peptide [4] | normalised SPOT signal, Boehringer light units (BLU); mean over the file's lines of this peptide [5] | normalised SPOT signal, Boehringer light units (BLU); mean over the file's lines of this peptide [6] | normalised SPOT signal, Boehringer light units (BLU); mean over the file's lines of this peptide [7] | Binder
11 | 71.2 | 56.9 | 19.7 | 38.6 | 63.3 | 7.9 | 86.4 | LNRQKNYPDAPAIF [YKL216W 87-100]
12 | 97.3 | 374 | 202 | 1440 | 271 | 72.5 | 22300 | LNTMKKRPAPPSLP [YOR231W 77-90]
13 | 451 | 63.3 | 80.3 | 73.4 | 208 | 99.3 | 318 | LQYHKKNPYSPLFS [YPL020C 12-25]
14 | 471 | 54.8 | 7.9 | 27.1 | 37.4 | 33.2 | 157 | LSKLRLSPENPSNT [YKL101W 1214-1227]
15 | 31.9 | 32.8 | 21 | 163 | 19.3 | 27.1 | 122 | LPLSRVQPVQPSQT [YNL007C 295-308]
16 | 88.9 | 54.9 | 22.9 | 11.4 | 67.3 | 0 | 102 | LPEKKNSPTTPSVF [YOL152W 75-88]

From PMC314469, “Protein Interaction Networks by Proteome Peptide Scanning” (PLoS Biology, 2004)
